Patent publication US20240279357A1 (THERINI BIO, published 2024)

T1: human Fibrin (human fibrinogen clotted on the plate with thrombin and CaCl2) (human, UniProt P02671 36-629; P02675 45-491; P02679 27-437)
T1 construct: Made in the ELISA wells from the human fibrinogen by thrombin and CaCl2, 1 hour at 37 C, then dried
T1 sequence (looked up) 1: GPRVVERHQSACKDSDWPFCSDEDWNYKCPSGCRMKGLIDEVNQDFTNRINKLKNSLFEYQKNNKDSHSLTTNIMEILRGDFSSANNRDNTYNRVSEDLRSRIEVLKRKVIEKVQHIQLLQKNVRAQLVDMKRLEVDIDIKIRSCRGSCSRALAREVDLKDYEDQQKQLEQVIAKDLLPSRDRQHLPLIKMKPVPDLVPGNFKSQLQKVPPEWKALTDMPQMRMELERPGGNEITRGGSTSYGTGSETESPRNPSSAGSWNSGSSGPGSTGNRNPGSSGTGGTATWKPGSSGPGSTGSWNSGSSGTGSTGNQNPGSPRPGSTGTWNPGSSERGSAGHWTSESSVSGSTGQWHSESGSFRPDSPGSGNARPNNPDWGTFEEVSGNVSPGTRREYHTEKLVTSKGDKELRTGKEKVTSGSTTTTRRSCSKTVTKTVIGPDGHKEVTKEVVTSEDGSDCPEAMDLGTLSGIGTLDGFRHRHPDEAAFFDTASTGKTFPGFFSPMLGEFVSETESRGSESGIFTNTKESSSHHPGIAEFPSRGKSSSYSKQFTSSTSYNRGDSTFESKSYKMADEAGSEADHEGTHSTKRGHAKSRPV
T1 sequence (looked up) 2: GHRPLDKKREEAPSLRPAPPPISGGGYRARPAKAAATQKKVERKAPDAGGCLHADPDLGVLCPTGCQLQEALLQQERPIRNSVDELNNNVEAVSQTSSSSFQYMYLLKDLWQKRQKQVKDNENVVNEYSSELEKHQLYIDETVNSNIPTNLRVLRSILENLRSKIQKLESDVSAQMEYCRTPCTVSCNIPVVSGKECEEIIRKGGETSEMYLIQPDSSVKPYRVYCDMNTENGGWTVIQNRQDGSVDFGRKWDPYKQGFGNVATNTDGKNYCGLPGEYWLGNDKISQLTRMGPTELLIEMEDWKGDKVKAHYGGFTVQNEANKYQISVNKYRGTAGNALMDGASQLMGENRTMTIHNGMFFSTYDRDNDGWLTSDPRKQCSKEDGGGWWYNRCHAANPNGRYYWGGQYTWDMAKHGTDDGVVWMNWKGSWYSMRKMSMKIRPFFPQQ
T1 sequence (looked up) 3: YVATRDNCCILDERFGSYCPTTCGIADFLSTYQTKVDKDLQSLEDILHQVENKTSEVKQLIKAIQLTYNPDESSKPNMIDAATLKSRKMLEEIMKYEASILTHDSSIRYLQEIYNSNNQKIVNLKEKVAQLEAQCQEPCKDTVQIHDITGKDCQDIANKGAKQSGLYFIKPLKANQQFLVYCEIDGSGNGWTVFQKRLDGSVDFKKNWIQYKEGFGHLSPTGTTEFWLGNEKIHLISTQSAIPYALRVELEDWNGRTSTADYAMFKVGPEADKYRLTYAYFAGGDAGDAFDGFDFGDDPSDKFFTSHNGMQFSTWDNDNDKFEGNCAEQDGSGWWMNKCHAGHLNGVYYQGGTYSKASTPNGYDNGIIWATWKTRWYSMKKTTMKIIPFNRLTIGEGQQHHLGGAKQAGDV

B1: humanized VH5/Vκ2 antibody (antibody, IgG1, V domains shown)
VH: QVQLVQSGAEVKKPGSSVKVSCKASGYTFTSYWIHWVRQAPGQGLEWIGLIDPSDSYTNYNQKFRGRVTITRDTSTSTAYMELSSLRSEDTAVYYCASSDPTGCWGQGTTVTVSS
VL: DIVMTQAAFSNPVTPGTPASISCRSSKSLLHSSGITYLSWYLQKPGQSPQLLIYQMSNLASGVPDRFSSSGSGTDFTLKISRVEAEDVGVYYCAQNLELPLTFGQGTKLEIK
notes: IgG1; also called VH5/VK2; VH5Vk2
B2: humanized VH4/Vκ2 antibody (antibody, IgG1, V domains shown)
VH: QVQLVQSGAEVKKPGSSVKVSCKASGYTFTSYWIHWVRQAPGQGLEWIGLIDPSDSYTNYNQKFRGRVTITVDTSTSTAYMELSSLRSEDTAVYYCASSDPTGCWGQGTTVTVSS
VL: DIVMTQAAFSNPVTPGTPASISCRSSKSLLHSSGITYLSWYLQKPGQSPQLLIYQMSNLASGVPDRFSSSGSGTDFTLKISRVEAEDVGVYYCAQNLELPLTFGQGTKLEIK
notes: IgG1; also called VH4/VK2; VH4Vk2
B3: humanized VH6/Vκ2 antibody (antibody, IgG1, V domains shown)
VH: QVQLVQSGAEVKKPGSSVKVSCKASGYTFTSYWIHWVRQAPGQGLEWIGLIDPSDSYTNYNQKFQGRVTITRDTSTSTAYMELSSLRSEDTAVYYCASSDPTGCWGQGTTVTVSS
VL: DIVMTQAAFSNPVTPGTPASISCRSSKSLLHSSGITYLSWYLQKPGQSPQLLIYQMSNLASGVPDRFSSSGSGTDFTLKISRVEAEDVGVYYCAQNLELPLTFGQGTKLEIK
notes: Expressed as IgG1; also called VH6/VK2; VH6Vk2
B4: humanized VH4/Vκ1 antibody (antibody, IgG1, V domains shown)
VH: QVQLVQSGAEVKKPGSSVKVSCKASGYTFTSYWIHWVRQAPGQGLEWIGLIDPSDSYTNYNQKFRGRVTITVDTSTSTAYMELSSLRSEDTAVYYCASSDPTGCWGQGTTVTVSS
VL: DIVMTQAAFSNPITPGTPASISCRSSKSLLHSSGITYLSWYLQKPGQSPQLLIYQMSNLASGVPDRFSSSGSGTDFTLRISRVEAEDVGVYYCAQNLELPLTFGQGTKLEIK
notes: Expressed as IgG1; also called VH4/VK1; VH4Vk1

molecular target: T1, human Fibrin (human fibrinogen clotted …); experiment: ELISA on human fibrin formed on the plate
Protocol: The humanized antibodies affinity for fibrinogen, fibrin and P2 peptide were assessed by Enzyme-linked immunosorbent assays (ELISA)s (FIGS. 7-16). ELISAs for fibrinogen binding were performed using plasminogen-depleted human Fibrinogen (EMD/Calbiochem). […] IgG1-depleted Fibrinogen (FGN) in 20 mM HEPES/Saline buffer was added to each well of half of a 96-well Nunc Maxisorp™ ELISA plate. The ELISAs for fibrin binding were prepared by adding 50 mL of 20 mM HEPES/Saline buffer containing 14 mM CaCl₂, and 2 units thrombin to each well of the second half of the Nunc Maxisorp™ ELISA plate. 50 mL of 20 mg fibrinogen in 20 mM HEPES/Saline buffer were then added to a total volume of 100 mL. Plates were placed in a 37° C. incubator for 1 hour to allow fibrinogen to clot into fibrin and subsequently placed overnight into a plate dryer at 37° C. overnight. The ELISAs for P2 peptide were prepared by addition of […] of 30 mM P2 peptide in 20 mM HEPES/Saline buffer to each well of a 96-well Nunc Maxisorp™ ELISA plate. Plates were transferred to the plate dryer and dried overnight at 37° C. All ELISAs were preformed using Nunc MaxiSorp 96-well ELISA plates. Blocking was performed using 100 mL 5% BSA in DPBS are incubated at RT for 1 hour. Plates were washed 5× in DPBS containing 0.05% Tween-20 (EL406 was used for the addition of wash buffer only). 50 mL of primary antibodies was diluted in 0.5% BSA in DPBS, and the primary antibodies were added to the plates and incubated for 2 hours at 37° C. Plates were washed 5× in DPBS/Tween. 100 mL secondary antibodies were diluted in 0.5% BSA in DPBS. The secondary antibodies were then added to the plates and incubated for 1 hour at RT. Afterwards, plates were washed 5× in DPBS/Tween. 100 mL of TMB/E substrate solution was added, and the reaction was stopped after 5 minutes with 1N HCl.

Question: With B1 as the binder, how does the EC50 read?
Answer: Its EC50 is about 0.525 µM.

Question: How did the EC50 turn out when B2 was run?
Answer: The EC50 was about 0.762 µM.

Question: How did the EC50 turn out when B3 was run?
Answer: Its EC50 is about 0.488 µM.

Question: With B4 as the binder, how does the EC50 read?
Answer: The EC50 was about 0.219 µM.
